Test results published in the DeepSol protein solubility set.

Assay: soluble on expression in E. coli; label from the status in PepcDB or PDB records

Sequence | soluble on expression in E. coli
MGSDKIHHHHHHMSLSRIHGDDDAFGARLDFAVNVAEAQPPTWLIQRLQSAVTDLAAYPHSSDLAAVTAMIARYHGVSEDHVLVLSGVSEGFAMLPQLKPENAVIIHPGFSEPDIVLTDAQIPVHRCILAPPFELSFENIPANADLVVIGNPTNPTGVVHSKELLAQLCAPGRTVVIDEAFLDIVGEQYSMIDQLDAVEGELIIFRSLTKTWSIAGLRVGYAIARPETLARLSAYRRHWPMGTLQLRAIEAVFDTGIMQLPERRAEMIAQRTEMIEMLTNSGFRCVSSSQAPYILVRPPSTQPEELRMALKAQGIAVRRCDTFPGLEFSYWRLAVRPRDQVQRLLTAIDNIIGAKK | not soluble
MGSDKIHHHHHHMPRLIVLNDNTPSRGLINDWGWSILIEGRERFLFDADTNPLVLAHNSKVLNVNLRNLDFAVLSHWHYDHYGGFEYIAELNPGIKFYAPPQGLALAMRWGFQPIAINFGGKIEEEVYTSGVIDGIEQAIGLETSSGLVVIVGCSHPGVDRMVEEVLKVSGYEKAYLVIGGFHSPPIHRLRNLARLSELIAPAHCSGDVAKAFIKRNYKEKYVDVKTGTILEI | not soluble
MQKKYYEDSHQDSYLLGVKEKDEVLLTALMRKIKNHTGDVYEIMGGPLVDFENENNNQIIAFFLKELHKYLKKQHAYYLRIVPNEKTQRVENNGKVVNYDLKNYSSLYFAEGFIYRSFEQVGYGFATPHYEYQKRIEGLNKKTLFQSYSKKTQYSIKKTYEFGITTRNISYDELEMFHENTTKTAKRLGFYDKELSYYQSVYRTFGDNAKFMIAEINLSDYIGHFQEIIRNLKDKIDQMILIDSKREKPTKTRQIKELRSQVEQHEKRIVQAKKLIEQYGKKINLAGALFFIQPQEVSYMFSYTNAEFKNFYGPYRTQADMLEFALKEKVPVYNFYGVSGDRSGHDGVYEFKKGFQGYMVDNMGAFILPINKFRYQFLQTIKKIIRRR | not soluble
MAHHHHHHMNSKASPAALPMRQGRGFQVIVHGVLEGAECVEVGSVFARTQLFFGPDWAFLESNSGYGEDAAADDDDLVEPTYSNNAEVVTQLCDCAKGPVPYFSFTAPFEFALTSTNPFGWPQLVITLHTVEGAGGSSGKGADGNDTQLLGSGESIIGYGRCFIPMKSGYHTKKVPMMQLESTTSKQQLISFLTREKPVLRDLSFLCTGDDQVMLHARPLDGYVKLNFSVMINGMESSGFEV | soluble
MGSDKIHHHHHHADSVKIGFITDMSGLYADIDGQGGLEAIKMAVADFGGKVNGKPIEVVYADHQNKADIAASKAREWMDRGGLDLLVGGTNSATALSMNQVAAEKKKVYINIGAGADTLTNEQCTPYTVHYAYDTMALAKGTGSAVVKQGGKTWFFLTADYAFGKALEKNTADVVKANGGKVLGEVRHPLSASDFSSFLLQAQSSKAQILGLANAGGDTVNAIKAAKEFGITKTMKLAALLMFINDVHALGLETTQGLVLTDSWYWNRDQASRQWAQRYFAKMKKMPSSLQAADYSSVTTYLKAVQAAGSTDSDKVMAQLKKMKIDDFYAKGYIRTDGSMIHDMYLMEVKKPSESKEPWDYYKVVATIPGEQAFTTKQETRCALWK | not soluble
MGSDKIHHHHHHMTWQVWRLGGLAITMVASLLLLDACSRDKAPVQIRSAVSQLPQTLDPRYATDAASARVNRLIYRSLVDFDVHARPAPSLASWRVLSPRLFRFTLGRHGRDFHDGRYLTAEDVAATYQSVIELADSPHAAEFANISKIEVRDENTLDFFLHDADSNFPARLILGILPAELIARQHDFSREPVGSGPFKFVSWQRSLKLERRSDKKRFVFEEVRDPTVRVLKLVRGEADILQGDLPPELVNYLKQQPGIDVQESEGSNFAYIGLNLQDDVLRNPLVRQALAHAIDRESIIKHALVGHSRLAESILPPEHWAGNGNLKPYEYNPVLARELLLRAGVSLPLKLVYKTSTDAQRVRLATMMQAQMRDAGIQLEIRSLDWGTFFDDIKRGNFQLYGLMWVGIKTPEIYHHAFHSSSVPPKGANRGHYADPKTDELIAVSDWASVAERVHAQLPYIPLWYEGQFAATRDHIKGYSLQPDGSWDGLVDVKRSKLKSVFPGRNQSAGM | not soluble
MAHHHHHHMGKHMNNQDFAETEQAARAIRKLLNGEIDTIKLENGNKLKIRSSDEKDDAHKRHNDKTNYSFIDNSEEENVQTNLLRKNETVDAGSKIVEDQEDFYILDNESIEAIANKISMENKFHEFEAEAFAQSLKDIIRSLNN | soluble
MYNISFTPDRPLTYHLEDDQSLARLSLVPGRGGLVTEWTVQGQPILYFDRERFQDPSLSVRGGIPILFPICGNLPQDQFNHAGKSYRLKQHGFARDLPWEVIGQQTQDNARLDLRLSHNDATLEAFPFAFELVFSYQLQGHSLRIEQRIANLGDQRMPFSLGFHPYFFCREKLGITLAIPANDYLDQKTGDCHGYDGQLNLTSPELDLAFTQISQPRAHFIDPDRNLKIEVSFSELYQTLVLWTVAGKDYLCLEPLEHHHHHH | not soluble
SDWKEVLRRRLATPNTCPNKKKSEQELKDEEMDLFTKYYSEWKGGRKNTNEFYKTIPRFYYRLPAEDEVLLQKLREESRAVFLQRKSRELLDNEELQNLWFLLDKHQTPPMIGEEAMINYENFLKVGEKAGAKCKQFFTAKVFAKLLHTDSYGRISIMQFFNYVMRKVWLHQTRIGLSLYDVAGQGYLRESDLENYILELIPTLPQLDGLEKSFYSFYVCTAVRKFFFFLDPLRTGKIKIQDILACSFLDDLLELRDEELSKESQETNWFSAPSALRVYGQYLNLDKDHNGMLSKEELSRYGTATMTNVFLDRVFQECLTYDGEMDYKTYLDFVLALENRKEPAALQYIFKLLDIENKGYLNVFSLNYFFRAIQELMKIHGQDPVSFQDVKDEIFDMVKPKDPLKISLQDLINSNQGDTVTTILIDLNGFWTYENREALVANDSENSADLDDT | soluble
MAHHHHHHMKLLSSVGRLSVVAGGLSLIPYTFIYDVDGGERCVMFNRFGGVSENTYGEGSHFYIPWFQTPYIYDIKMKPKVINTTTGTRDLQIVTLSLRLLFRPHTKQLPYLHSTLGPDYDERVLPSIGNEVLKAVVAKYNAESLLTQRDKISKEIRESITARAKHFNILLDDVAITHLSYGKEFAKAIEDKQVAQQESERVKFIVAKTEQEKIAAVIKAQGEAEAAKLISSAVKEYGNSLLEIRKLEAAKEIAENLSKSKNVTYFPASFNILLNPKNL | not soluble
MSGRKIAAATVQNRTQTPFWNWLKQKLLASDRLPITPPPGIAGPDGKAVYQNPLRFPNTQSARPCSAELPALPGGVHHKLADNYYLTRDGRRNVDAPKVLYSSGEFVGGEKAQPAQVNQGVATNFGLTAPTPGFGAEWSRSKQNELASQQKNTEFEYLQRFDKFTKSA | not soluble
MSLTTSAHKHPYKIVASDLDGTLLAPNHQLSEFSKQTLKQLHDKGFTFIFATGRHHIDVAGIREIAGIPAYMITSNGARVHDQNDQLMYSKNVPQDLVQAIIDVVKHDKQLFVHLYRNDEWMLNKEDEILRDFHEDSGFTYRVFDVNNAPTDGIAKIFFTQEDQDHEHLVQYETLLNQRFGDKLNVAFSTPWCLEVMCAGVSKGDALQAVAESLHLGLENCIAFGDGMNDVEMLSMAGKGLVMGTAHEKVFNALPDNEVIGSNADDAVAHYLHQHLFEGGSHHHHHH | soluble
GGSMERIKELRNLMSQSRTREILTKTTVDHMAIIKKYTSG | soluble
MSLDAENRAFYKIFTLKNNNLCKNSTLLEKIFKNNVEEFDFSLVKQNLEHEKNCVITSTMNQTIFFENMNSKEMGNKAYSFFNQTVLNNKGNTSLEEQISDIFDRCVYMNAEKSSSYIKLLEQDYNQVDMFVSLIFIGPYRHNLILITPVTLHLTLIPKNVKNNSFKNLFSGDMHFNMVTMTHLTEGHHHHHH | soluble
MQDEYYMARALKLAQRGRFTTHPNPNVGCVIVKDGEIVGEGYHQRAGEPHAEVHALRMAGEKAKGATAYVTLEPCSHHGRTPPCCDALIAAGVARVVASMQDPNPQVAGRGLYRLQQAGIDVSHGLMMSEAEQLNKGFLKRMRTGFPYIQLKLGASLDGRTAMASGESQWITSPQARRDVQLLRAQSHAILTSSATVLADDPALTVRWSELDEQTQALYPQQNLRQPIRIVIDSQNRVTPVHRIVQQPGETWFARTQEDSREWPETVRTLLIPEHKGHLDLVVLMMQLGKQQINSIWVEAGPTLAGALLQAGLVDELIVYIAPKLLGSDARGLCTLPGLEKLADAPQFKFKEIRHVGPDVCLHLVGA | soluble
MCMQAQDVTIRDQEIKLGQFIKLANLVETGGAAKEVIAEGRVTVNGAVDTRRGKTLRDGDVVCIGTACARVVAGAADDDDYFDEKTANDDFDPEVWRNM | not soluble
FHHYKILDTNILIDGRIYDLAKTGFLEGTLLVPNFVLYELQYIADSSDSVKRVRGRRGLDILNKLQNEHIMPIEMYEGDFEDIPEVDSKLIALAKQNGGVIVTNDYNLNKVIQFQNVQVLNINSLANALKPRVI | not soluble
MKNASVITVGNEILKGRTVNTNAAFIGNFLTYHGYQVRRGFVVMDDLDEIGWAFRVALEVSDLVVSSGGLGPTFDDMTVEGFAKCIGQDLRIDEDALAMIKKKYGQADLTPQRLKMAKIPPSCRPIENPVGTAPGLICAVGGKKVIILPGVPKEMEALLKAMEKDIIIPDTHYYDDSVIIADVMESAFAPYVDRIMKEFDGIYVKSHPRNVEVKNPELEIEISGFGEDEAALRKKIEDAIARAGEYAVKLGGSVKR | not soluble
MPIMSIISCKIMQDEIIWILENDSSIDETIIIDSENILEFVEKLDKVNLQYKVLSLEDISSLAEIRSECKNYTVMIHLMELGLHRSPKELKIKVYETIKTLAPFSSGILLFYGLCGNVLGDVEKDFERSSTSCPVRILKDKDHRIVDDCIGATVGGVNNYLRILKSVSDAGTYLFTPMYSKGWRELLDLNKLNKDPSKALKLMKKTHEMIGYKRVAKINTGLEYTENFDASIQEFAELFDFEILEFDDGNQKIFEDCYNELKAELLEHHHHHH | not soluble
MKRLLILTALLPFVGFAQPINTLNNPNQPGYQIPSQQRMQTQMQTQQIQQKGMLNQQLKTQTQLQQQHLENQINNNSQRVLQSQPGERNPARQQMLPNTNGGMLNSNRNPDSSLNQQHMLPERRNGDMLNQPSTPQPDIPLKTIGP | soluble
MAEQSDEAVKYYTLEEIQKHNHSKSTWLILHHKVYDLTKFLEEHPGGEEVLREQAGGDATENFEDVGHSTDAREMSKTFIIGELHPDDRPKLNKPPEP | soluble
ELKPTAPPIFTGRPFVVAWDVPTQDCGPRLKVPLDLNAFDVQASPNEGFVNQNITIFYRDRLGLYPRFDSAGRSVHGGVPQNVSLWAHRKMLQKRVEHYIRTQESAGLAVIDWEDWRPVWVRNWQDKDVYRRLSRQLVASRHPDWPPDRIVKQAQYEFEFAAQQFMLETLRYVKAVRPRHLWGFYLFPDCYNHDYVQNWESYTGRCPDVEVARNDQLAWLWAESTALFPSVYLDETLASSRHGRNFVSFRVQEALRVARTHHANHALPVYVFTRPTYSRRLTGLSEMDLISTIGESAALGAAGVILWGDAGYTTSTETCQYLKDYLTRLLVPYVVNVSWATQYCSRAQCHGHGRCVRRNPSASTFLHLSTNSFRLVPGHAPGEPQLRPVGELSWADIDHLQTHFRCQCYLGWSGEQCQWDHRQAAGG | soluble
GPMRRERGRQGDSSSCERQVDRVNLKPCEQHIMQRIMGEQEQYDSYDIRSTRSSDQQQRCCDELNEMENTQGCMCEALQQIMENQCDRLQDRQMVQQFKRELMSLPQQCNFRAPQRCDLDVSGGRCS | soluble
